Reference: patent publication US7005283B2, “Cytochrome P450 oxygenases and their uses” (Washington State University Research Foundation, priority 1999, dated 2006)

Assays:
[1] = In vivo screening of functionally expressed clones in yeast with taxoid substrates (general statements); type: cell-based, Saccharomyces cerevisiae
Source text: (§1) Transformed yeast cells that fimctionally express a recombinant cytochrome P450 gene from Taxus (by CO-difference spectrum) can be tested in vivo for their ability to oxygenate (hydroxylate or epoxidize) taxoid substrates fed exogenously to the cells, thereby eliminating the need for microsome isolation for preliminary in vitro assays.
(§2) Accordingly, several clones of the available full-length clones were expressed in induced yeast host cells.
(§3) Transformed yeast cells that functionally express a recombinant cytochrome P450 gene from Taxus (by CO-difference spectrum) were tested in vivo for their ability to oxygenate (hydroxylate or epoxidize) taxoid substrates fed exogenously, thereby eliminating the need for microsome isolation for such a preliminary in vitro assay. […] The ether extracts resulting from these incubations were analyzed by radio-HPLC. Several clones converted the taxadienyl-5α-yl acetate substrate to a more polar product.
Isolated transformants for each full-length cytochrome P450 clone shown to express a functional enzyme by CO-difference spectrum (ten clones) were grown to stationary phase in 2 mL SGI medium at 30° C. and used to inoculate a 10-mL expression culture (in YPL medium). Approximately 8 hours after induction, cells were harvested by centrifugation (10 minutes at 1500 rpm), and the pellet was resuspended in 2 mL of fresh YPL medium. […]

[2] = type: binding, Saccharomyces cerevisiae
Source text: CO-sensor of the 19 full-length cytochrome P450 clones from Taxus, thus far obtained, ten have yielded detectable CO-difference spectra (Table 2). […] These alternative expression systems for cytochrome P450 genes include the yeast Pichia pastoris, for which expression vectors and hosts are commercially available (Invitrogen, Carlsbad, Calif.), as well as established E. coli and baculovirus-insect cell systems for which general expression procedures have been described (Barnes, Methods Enzymol. 272:1–14, 1996;Gonzalez et al., Methods Enzymol. 206:93–99, 1991;Lee et al., Methods Enzymol. 272:86–98, 1996;and Lupien et al., Arch. Biochem. Biophys. 368:181–192, 1999).
Appropriate restriction sites were introduced by standard PCR methods (Innis et al., PCR Protocols: A Guide to Methods and Applications, Academic Press, San Diego, Calif., 1990) immediately upstream of the ATG start codon and downstream of the stop codon of all full-length cytochrome P450 clones. These modified amplicons were gel-purified, digested with the corresponding restriction enzymes, and then ligated into the expression vector pYeDP60. The vector/insert junctions were sequenced to ensure that no errors had been introduced by the PCR construction. Verified clones were transformed into yeast using the lithium acetate method (Ito et al., J. Bacteriol. 153:163–168, 1983). Isolated transformants were grown to stationary phase in SGI medium (Pompon et al., Methods Enzymol. 272:51–64, 1996), and used as inocula for a large-scale expression culture grown in YPL medium (Pompon et al., Methods Enzymol. 272:51–64, 1996). Approximately 24 hours after induction of cytochrome P450 expression with galactose (to 10% final concentration), a portion of the yeast cell culture was harvested by centrifugation. One-half of the culture was treated with carbon monoxide, and the cytochrome P450 CO-difference spectrum was recorded directly (using untreated cells as a control) by spectrophotometry (Omura and Sato, J. Biol. Chem. 239:2370–2378, 1964).

[3] = In vivo assay of yeast cells expressing recombinant oxygenases, radio-HPLC, substrate taxadiene; type: cell-based, Saccharomyces cerevisiae; conditions: assayed with Taxadiene; graded symbols, key not given
Source text: as §1, §2
(§4) Isolated transformants for each full-length cytochrome P450 clone shown to express a functional enzyme by CO-difference spectrum (ten clones) were grown to stationary phase in 2 mL SGI medium at 30° C. and used to inoculate a 10-mL expression culture (in YPL medium). Approximately 8 hours after induction, cells were harvested by centrifugation (10 minutes at 1500 rpm), and the pellet was resuspended in 2 mL of fresh YPL medium.
(§5) To eliminate additional complication and uncertainty associated with microsome isolations for in vitro assays, 10^6 dpm of [20-^3H3]taxa-4(5),11(12)-diene (16 Ci/mol) or [20-^3H2]taxa-4(20),11(12)-diene-5-α-ol (4.0 Ci/mol), or other taxoid substrate were added directly to the cell suspension to assay conversion in vivo. After 12 hours of incubation at 30° C. with agitation (250 rpm), the mixture was treated for 15 minutes in a sonication bath and extracted 3 times with 2 mL diethyl ether to insure isolation of the biosynthetic products. These ether extracts, containing residual substrate and derived product(s), were concentrated to dryness, resuspended in 200 μL of CH3CN, and filtered. These samples were analyzed by radio-HPLC (Hefner et al., Chemistry and Biology 3:479–489, 1996) using a 4.6 mm i.d.×250 mm column of Econosil C18, 5 μ (Alltech, Deerfield, Ill.) with a gradient of CH3CN in H2O from 0% to 85% (10 minutes at 1 mL/minute), then to 100% CH3CN over 40 minutes.

[4] = In vivo assay of yeast cells expressing recombinant oxygenases, radio-HPLC, substrate taxadien-5α-ol; type: cell-based, Saccharomyces cerevisiae; conditions: for product identified HPLC peak: assayed with Taxadien5αol, graded symbols, key not given
Source text: as §1, §2, §4, §5

[5] = In vivo assay of yeast cells expressing recombinant oxygenases, radio-HPLC, substrate taxadienyl acetate; type: cell-based, Saccharomyces cerevisiae; conditions: for product identified HPLC peak: assayed with Taxadienyl Ac, graded symbols, key not given
Procedure: as §3, §4, §5

[6] = yeast transformants, radio-HPLC and GC-MS

| Molecule | oxygenation of taxoid substrates ([1]; in vivo) | CO diff. spec. [2] | CO-difference spectrum [2] | product identified HPLC peak [3] | product identified HPLC peak [4] | product identified HPLC peak [5] | enzyme function assigned from screening ([1]; taxadienol and taxadienyl acetate as test substrates) | product formed from taxadien-5α-yl acetate [5, 6] | product formed from taxadien-5α-ol [4, 6] |
| --- | --- | --- | --- | --- | --- | --- | --- | --- | --- |
| clone F34: Taxus cuspidata cytochrome P450, outlying full-length clone, SEQ ID NO: 53 (nt) / 66 (aa) (protein, listed as Taxus cuspidata, X: residue not identified in the source; ends and bridges not checked) MAYPELLENLSGDRAQSPAIAAVLTILFLLGIFYILRGLRNNGRRLPPGPIPWPIVGNLHQLGKLPNRNLEELAKKHGPIMLMKLGSVPAVIVSSSAMAKEVLKTHDLVFASRPESAAGKYIAYNYKDIVFSPYGPYWRQMKKICVVELLNARRIESLRSVREEEVSVIIRSVWEKSKQGAVAVNLSKTLSSLTQGLMLQIFSSNDDGGNSSVTAIKEMMSEVSETAGAFNIGDYFPWMDWMDLQGIQRRMTKAHDYFDQVITKIIEQHQRTRAMEDTQQPKDIIDALLQMENTDGVTITMENIKAVVLGIFLGGAETTSTTLEWAMSAMLENPEVAKKVQEEIESVVGRKRVVKEMIWESMEYLQCVVKKTMRLYPAVPLLIPHESTQDCTVNGYFIPERTRILVNAWAIGKDPNVWDDALAFKPKRFLGXNVDLQKGKEFFDMVPFGAGRKGCPGASMAVVTMEHALAQLMHCFQWRIEGELDMSERLAASVQKKVDLCVLPQWRLTSSP | does not transform the taxoid substrates to oxygenated products | ++ | reliable CO-difference spectrum | No | No | – | – | – | – |
| clone F21: Taxus cuspidata cytochrome P450 oxygenase, full-length clone, SEQ ID NO: 44 (nt) / 57 (aa) (protein, listed as Taxus cuspidata) MLIEMDTFVQLESSPVLLSLTLTLILLFIFCSKQYRSSLKLPPGNMGFPLIGETIALASQTPDKFFGDRMKKFGKVFKTSLIGHPTIVLCGSSGNRFLLSNEEKLVRMFPPNSSSKLLGQDSVLGKIGEEHRIVRTALARCLGPQALQNYVSKMSSEIQRHINQKWKGKGEVKMLPLIRSLVFSIATSLFFGITDEQQQERLHHLLETVVTGLLCIPLDFPGTTFRKALHARSKLDEIMSSVIERRRNDLRLGAASSDQDLLSVLLTFKDERGNPFADKEILDNFSFLLHALYDTTISPLTLVFKLVSSNPECYENIAQEQLEILRNKKDGEDISWADLKDMKYTWQAVQETLRMCPPVYGNFRKALTDIHYDGYTIPKGWRILCSPYTTHSKEEYFDDPEKFRPSRFEEQGRDVAPYTFIPFGGGLRICPGREFAKMEILVFMHHFVKAFSSFIPVDPNEKISTDPLPSIPVNGFSINLVPRS | – | + | – | No | – | No | – | – | – |
| clone F14: Taxus cuspidata cytochrome P450 taxane 10β-hydroxylase, full-length clone, SEQ ID NO: 51 (nt) / 64 (aa) (protein, listed as Taxus cuspidata) MDSFIFLRSIGTKFGQLESSPAILSLTLAPILAIILLLLFRYNHRSSVKLPPGKLGFPLIGETIQLLRTLRSETPQKFFDDRLKKFGPVYMTSLIGHPTVVLCGPAGNKLVLSNEDKLVEMEGPKSFMKLIGEDSIVAKRGEDHRILRTALARFLGAQALQNYLGRMSSEIGHHFNEKWKGKDEVKVLPLVRGLIFSIASTLFFDVNDGHQQKQLHHLLETILVGSLSVPLDFPGTRYRKGLQARLKLDEILSSLIKRRRRDLRSGIASDDQDLLSVLLTFRDEKGNSLTDQGILDNFSAMFHASYDTTVAPMALIFKLLYSNPEYHEKVFQEQLEIIGNKKEGEEISWKDLKSMKYTWQAVQESLRMYPPVFGIFRKAITDIHYDGYTIPKGWRVLCSPYTTHLREEYFPEPEEFRPSRFEDEGRHVTPYTYVPFGGGLRTCPGWEFSKIEILLFVHHFVKNFSSYIPVDPNEKVLSDPLPPLPANGFSIKLFPRS | – | +++ | – | No | – | – | cytochrome P450 taxane-10β-hydroxylase | taxadien-diol monoacetate | diol products |
| clone F31: Taxus cuspidata cytochrome P450 oxygenase, full-length clone, SEQ ID NO: 46 (nt) / 59 (aa) (protein, listed as Taxus cuspidata) MDALSLVNSTVAKFNEVTQLQASPAILSTALTAIAGIIVLLVITSKRRSSLKLPPGKLGLPFIGETLEFVKALRSDTLRQFVEEREGKFGRVFKTSLLGKPTVILCGPAGNRLVLSNEEKLLHVSWSAQIARILGLNSVAVKRGDDHRVLRVALAGFLGSAGLQLYIGKMSALIRNHINEKWKGKDEVNVLSLVRDLVMDNSAILFFNIYDKERKQQLHEILKIILASHFGIPLNIPGFLYRKALKGSLKRKKILSALLEKRKDELRSRLASSNQDLLSVLLSFRDERGKPLSDEAVLDNCFAMLDASYDTTTSQMTLILKMLSSNPECFEKVVQEQLEIASNKKEGEEITMKDIKAMKYTWQVLQESLRMLSPVFGTLRKTMNDINHDGYTIPKGWQVVWTTYSTHQKDIYFKQPDKFMPSRFEEEDGHLDAYTFVPFGGGRRTCPGWEYAKVEILLFLHHFVKAFSGYTPTDPHERICGYPVPLVPVKGFPIKLIARS | – | + | – | No | No | No | – | – | – |
